Source: patent US20220112276A1 (Janssen / Centocor, published 2022)

T1: mouse pIgR extracellular domain (ECD) (mouse, UniProt O70570 19-645)
T1 construct: Bought from R&D Systems (Cat 2800-PG-050); also called mpIgR ECD
T1 sequence: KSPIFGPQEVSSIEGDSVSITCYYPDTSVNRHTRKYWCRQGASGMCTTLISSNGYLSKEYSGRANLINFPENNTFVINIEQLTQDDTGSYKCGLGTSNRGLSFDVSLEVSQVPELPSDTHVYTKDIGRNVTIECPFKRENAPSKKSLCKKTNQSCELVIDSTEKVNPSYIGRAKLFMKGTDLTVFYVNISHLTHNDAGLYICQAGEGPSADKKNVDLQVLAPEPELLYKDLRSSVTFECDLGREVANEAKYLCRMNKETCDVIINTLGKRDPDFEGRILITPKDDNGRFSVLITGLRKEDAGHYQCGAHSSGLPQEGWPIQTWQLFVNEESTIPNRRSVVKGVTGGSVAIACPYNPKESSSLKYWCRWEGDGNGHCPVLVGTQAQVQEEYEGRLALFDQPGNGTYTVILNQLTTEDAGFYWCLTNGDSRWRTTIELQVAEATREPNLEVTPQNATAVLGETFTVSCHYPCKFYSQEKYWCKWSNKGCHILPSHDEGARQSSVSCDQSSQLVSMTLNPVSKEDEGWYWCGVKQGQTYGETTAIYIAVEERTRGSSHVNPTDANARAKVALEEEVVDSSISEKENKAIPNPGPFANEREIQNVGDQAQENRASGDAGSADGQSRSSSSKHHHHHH

T2: rat pIgR extracellular domain (rat, UniProt P15083 19-643)
T2 construct: extracellular domain
T2 sequence (looked up): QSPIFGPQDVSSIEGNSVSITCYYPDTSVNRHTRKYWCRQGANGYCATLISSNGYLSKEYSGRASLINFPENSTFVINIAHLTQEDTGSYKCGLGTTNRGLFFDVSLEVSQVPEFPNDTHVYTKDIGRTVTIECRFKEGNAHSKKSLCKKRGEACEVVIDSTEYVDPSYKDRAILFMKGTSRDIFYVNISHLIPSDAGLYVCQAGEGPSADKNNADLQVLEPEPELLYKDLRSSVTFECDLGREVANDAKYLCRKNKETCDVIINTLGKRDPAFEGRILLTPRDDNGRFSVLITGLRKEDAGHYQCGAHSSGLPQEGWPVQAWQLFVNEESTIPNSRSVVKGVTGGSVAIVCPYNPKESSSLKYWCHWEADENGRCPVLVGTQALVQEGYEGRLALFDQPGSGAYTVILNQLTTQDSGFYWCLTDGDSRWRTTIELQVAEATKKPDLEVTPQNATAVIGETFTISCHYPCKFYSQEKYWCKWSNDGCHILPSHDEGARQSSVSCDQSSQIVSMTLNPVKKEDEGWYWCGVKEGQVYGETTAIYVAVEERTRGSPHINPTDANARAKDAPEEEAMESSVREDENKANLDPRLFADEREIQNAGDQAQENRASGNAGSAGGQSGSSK


Tests used:
[1] = molecular target: T3, cynomolgus monkey pIgR extracellular domain (cynomolgus monkey, UniProt A0A2K5WMU9 19-638); experiment: SPR, VHH captured by anti-Fc, ECD analyte
T3 construct: extracellular domain
Method in brief: (§1)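 Single-cycle kinetics: ECD analyte from 30 nM, 3-fold series, low to high, with 30 min off-rate monitoring, over VHH captured at 0.5 ug/ml (~200-300 RU). HBSP plus 100 ug/ml BSA at 30 μL/min. Reference cell and buffer blank subtracted; global 1:1 Langmuir fit gave kon, koff, KD.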

[2] = molecular target: T1, mouse pIgR extracellular domain (ECD); experiment: SPR, VHH captured by anti-Fc, ECD analyte
Method in brief: as §1

[3] = molecular target: T4, human pIgR extracellular domain (ECD) (human, UniProt P01833 19-638); experiment: SPR
T4 construct: Bought from R&D Systems (Cat 2717-PG-050); also called hpIgR ECD

[4] = molecular target: T2, rat pIgR extracellular domain; experiment: SPR, VHH captured by anti-Fc, ECD analyte
Method in brief: as §1

[5] = molecular target: T4, human pIgR extracellular domain (ECD); experiment: SPR, VHH captured by anti-Fc, ECD analyte
Method in brief: as §1

T4 sequence (P01833 other isoform, or with tags, fused parts or gaps): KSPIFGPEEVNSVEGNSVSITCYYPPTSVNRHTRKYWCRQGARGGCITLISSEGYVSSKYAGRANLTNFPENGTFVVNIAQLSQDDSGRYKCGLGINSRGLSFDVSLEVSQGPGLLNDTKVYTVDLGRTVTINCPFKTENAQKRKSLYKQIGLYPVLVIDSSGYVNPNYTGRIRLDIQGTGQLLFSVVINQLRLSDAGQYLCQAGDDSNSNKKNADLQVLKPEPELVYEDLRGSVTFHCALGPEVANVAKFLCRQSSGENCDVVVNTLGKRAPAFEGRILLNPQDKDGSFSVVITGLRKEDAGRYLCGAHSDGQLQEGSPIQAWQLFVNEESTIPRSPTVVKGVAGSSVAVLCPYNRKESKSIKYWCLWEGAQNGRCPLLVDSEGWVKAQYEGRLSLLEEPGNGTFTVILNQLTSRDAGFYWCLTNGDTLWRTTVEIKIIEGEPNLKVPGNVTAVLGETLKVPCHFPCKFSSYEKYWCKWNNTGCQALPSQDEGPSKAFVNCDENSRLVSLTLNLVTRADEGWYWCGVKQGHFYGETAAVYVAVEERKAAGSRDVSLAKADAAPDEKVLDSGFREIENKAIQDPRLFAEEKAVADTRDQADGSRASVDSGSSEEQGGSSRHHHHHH
T3 sequence (A0A2K5WMU9 entry or part of it): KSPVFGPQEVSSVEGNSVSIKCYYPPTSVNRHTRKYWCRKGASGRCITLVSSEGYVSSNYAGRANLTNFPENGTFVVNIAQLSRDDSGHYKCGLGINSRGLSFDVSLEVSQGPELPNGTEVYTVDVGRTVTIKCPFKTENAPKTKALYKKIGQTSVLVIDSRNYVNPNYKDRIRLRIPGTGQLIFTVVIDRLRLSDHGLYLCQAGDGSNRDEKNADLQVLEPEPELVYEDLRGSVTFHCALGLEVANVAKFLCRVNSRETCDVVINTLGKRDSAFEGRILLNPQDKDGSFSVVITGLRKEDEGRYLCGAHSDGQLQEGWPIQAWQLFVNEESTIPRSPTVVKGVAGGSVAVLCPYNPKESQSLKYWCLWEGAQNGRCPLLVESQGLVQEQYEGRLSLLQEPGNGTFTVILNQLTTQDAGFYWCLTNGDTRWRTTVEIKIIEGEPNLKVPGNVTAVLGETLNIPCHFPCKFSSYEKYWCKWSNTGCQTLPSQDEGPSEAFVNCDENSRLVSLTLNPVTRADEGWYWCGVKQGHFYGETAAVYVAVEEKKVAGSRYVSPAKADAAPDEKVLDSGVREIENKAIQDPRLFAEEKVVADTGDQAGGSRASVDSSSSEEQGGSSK

Kd [1] [nM]	Kd [2] [nM]	binding result [3]	Kd [4] [nM]	Kd [5] [nM]	Binder
2.72	3.98	no binding (tested: 30 nM)	–	–	01F05R2LS VHH Mono-Fc (Fc fusion) QVQLVESGGGLVQAGGSLRLSCAASGSIFAINGMGWYRQAPGKQRELVAVITRGGSTNYADSVKGRFTISRDNAKNTVSLQMNSLKPEDTAVYYCAATGVLAGWAAGDGMDYWGKGTLVTVSSSPAPELLGGPSVFLFPPKPKDTLMISRTPEVTCVVVDVSHEDPEVKFNWYVDGVEVHNAKTKPREEQYNSTYRVVSVLTVLHQDWLNGKEYKCKVSNKALPAPIEKTISKAKGQPREPQVYTKPPSREEMTKNQVSLSCLVKGFYPSDIAVEWESNGQPENNYKTTVPVLDSDGSFRLASYLTVDKSRWQQGNVFSCSVMHEALHNHYTQKSLSLSPGK
–	3.29	no binding (tested: 30 nM)	–	–	01A04R3LS VHH Mono-Fc (Fc fusion) QVQLVESGGGSVQPGGSLRLSCAASGIDVSISTIMWYRQPPGRQRELVADVIPSGRSTTYTESVKGRFTVTRDNAKNTVYLQMSGLKPEDTAVYYCNAFVRRENYWGQGTQVTVSSSPAPELLGGPSVFLFPPKPKDTLMISRTPEVTCVVVDVSHEDPEVKFNWYVDGVEVHNAKTKPREEQYNSTYRVVSVLTVLHQDWLNGKEYKCKVSNKALPAPIEKTISKAKGQPREPQVYTKPPSREEMTKNQVSLSCLVKGFYPSDIAVEWESNGQPENNYKTTVPVLDSDGSFRLASYLTVDKSRWQQGNVFSCSVMHEALHNHYTQKSLSLSPGK
–	46.6	no binding (tested: 30 nM)	25.4	–	02H04R3 VHH Mono-Fc (Fc fusion) EVQLVESGGGLVQPGGRLRLSCAASGSIFSIRDMGWYRQAPGKQRELVAIFARGGSTHYADSVKGRFTISRDNAKNTVYLQMNSLEPEDTAAYYCNAEVATMIQPGFRDYWGQGTQVTVSSSPAPELLGGPSVFLFPPKPKDTLMISRTPEVTCVVVDVSHEDPEVKFNWYVDGVEVHNAKTKPREEQYNSTYRVVSVLTVLHQDWLNGKEYKCKVSNKALPAPIEKTISKAKGQPREPQVYTKPPSREEMTKNQVSLSCLVKGFYPSDIAVEWESNGQPENNYKTTVPVLDSDGSFRLASYLTVDKSRWQQGNVFSCSVMHEALHNHYTQKSLSLSPGK
–	6.06	no binding (tested: 30 nM)	2.91	–	01A03R3L VHH Mono-Fc (Fc fusion) EVQLVESGGGLVQPGGQLRLSCAASGSIASVRDMAWYRQAPGKQRGLVAIFARGGTTHYADSVKGRFTISRDNAKNTVYLQMNSLEPEDTAAYYCNAEVATMFQPGFRDYWGRGTLVTVSSSPAPELLGGPSVFLFPPKPKDTLMISRTPEVTCVVVDVSHEDPEVKFNWYVDGVEVHNAKTKPREEQYNSTYRVVSVLTVLHQDWLNGKEYKCKVSNKALPAPIEKTISKAKGQPREPQVYTKPPSREEMTKNQVSLSCLVKGFYPSDIAVEWESNGQPENNYKTTVPVLDSDGSFRLASYLTVDKSRWQQGNVFSCSVMHEALHNHYTQKSLSLSPGK
2.11	4.46	–	2.33	11.4	01B07R2L VHH Mono-Fc (Fc fusion) EVQLVESGGGLVQAGGSLRLSCAASGRTFSSDAVGWFRQAPGKEREFVAHIHWSGDFTTYYYYGDFVKGRFTISRGTAKNTVYLQMNSLKPEDTAVYYCAAPKGAIGDPRSTREYDYWGQGTLVTVSSSPAPELLGGPSVFLFPPKPKDTLMISRTPEVTCVVVDVSHEDPEVKFNWYVDGVEVHNAKTKPREEQYNSTYRVVSVLTVLHQDWLNGKEYKCKVSNKALPAPIEKTISKAKGQPREPQVYTKPPSREEMTKNQVSLSCLVKGFYPSDIAVEWESNGQPENNYKTTVPVLDSDGSFRLASYLTVDKSRWQQGNVFSCSVMHEALHNHYTQKSLSLSPGK
4.97	7.18	–	2.78	17.9	01A02R3 VHH Mono-Fc (Fc fusion) EVQLVESGGGLVQSGGSLRLSCAASGRTFDQFTVGWFRQAPGKEREFVTAIRWSGSTTYRYYADSVKGRFTISRDNARNTVDLQMNSLKPEDSAVYYCAGQMSQWSDPRGDDYDSWGQGTLVTVSSSPAPELLGGPSVFLFPPKPKDTLMISRTPEVTCVVVDVSHEDPEVKFNWYVDGVEVHNAKTKPREEQYNSTYRVVSVLTVLHQDWLNGKEYKCKVSNKALPAPIEKTISKAKGQPREPQVYTKPPSREEMTKNQVSLSCLVKGFYPSDIAVEWESNGQPENNYKTTVPVLDSDGSFRLASYLTVDKSRWQQGNVFSCSVMHEALHNHYTQKSLSLSPGK
36.2	17.3	–	16.1	34.2	01E05R2 VHH Mono-Fc (Fc fusion) QVQLVESGGGLVQAGGSLRLSCAASGRAFSSGRMGWFRQAPGKEREFVAAISWSGHTTYKYYADSVKGRFTISRENAKNTVSLQMNSLKPEDTAVYYCAARQSLVAGGDPRGQSEYDYWGQGTLVTVSSSPAPELLGGPSVFLFPPKPKDTLMISRTPEVTCVVVDVSHEDPEVKFNWYVDGVEVHNAKTKPREEQYNSTYRVVSVLTVLHQDWLNGKEYKCKVSNKALPAPIEKTISKAKGQPREPQVYTKPPSREEMTKNQVSLSCLVKGFYPSDIAVEWESNGQPENNYKTTVPVLDSDGSFRLASYLTVDKSRWQQGNVFSCSVMHEALHNHYTQKSLSLSPGK
–	19.8	no binding (tested: 30 nM)	–	–	01G05R2LS VHH Mono-Fc (Fc fusion) QVQLVESGGGLVQAGDSLALSCAGSGDTFSNYAMGWFRQAPGKEREFVADISWYSANIGYADSVKGRFTISRDNAKNMVTLRMNSLKPEDTAVYYCAADRNHWPVKGDYWGQGTQVTVSSSPAPELLGGPSVFLFPPKPKDTLMISRTPEVTCVVVDVSHEDPEVKFNWYVDGVEVHNAKTKPREEQYNSTYRVVSVLTVLHQDWLNGKEYKCKVSNKALPAPIEKTISKAKGQPREPQVYTKPPSREEMTKNQVSLSCLVKGFYPSDIAVEWESNGQPENNYKTTVPVLDSDGSFRLASYLTVDKSRWQQGNVFSCSVMHEALHNHYTQKSLSLSPGK
–	6.55	no binding (tested: 30 nM)	–	–	01C01R2L VHH Mono-Fc (Fc fusion) QVQLVESGGGLVQAGGSLRLSCAASGRTLRSYIVGWFRQAPGKEREFVAAVTWSDGRRVTADPVKGRFTISRDNAKNTVYLQMDSLKPEDAAVYYCAVSRGGAYEYSRAYEYWGQGTLVTVSSSPAPELLGGPSVFLFPPKPKDTLMISRTPEVTCVVVDVSHEDPEVKFNWYVDGVEVHNAKTKPREEQYNSTYRVVSVLTVLHQDWLNGKEYKCKVSNKALPAPIEKTISKAKGQPREPQVYTKPPSREEMTKNQVSLSCLVKGFYPSDIAVEWESNGQPENNYKTTVPVLDSDGSFRLASYLTVDKSRWQQGNVFSCSVMHEALHNHYTQKSLSLSPGK
–	3.67	no binding (tested: 30 nM)	–	–	01C03R2L VHH Mono-Fc (Fc fusion) EVQLVESGGGLVQAGGSLRLSCAASGRTLRSYIVGWFRQAPGKEREFVAAVTWSDGRRVTADPVKGRFTISRDNAKNTVYLQMDSLKPEDAAVYYCAVSHGGAYVESRAYEYWGQGTQVTVSSSPAPELLGGPSVFLFPPKPKDTLMISRTPEVTCVVVDVSHEDPEVKFNWYVDGVEVHNAKTKPREEQYNSTYRVVSVLTVLHQDWLNGKEYKCKVSNKALPAPIEKTISKAKGQPREPQVYTKPPSREEMTKNQVSLSCLVKGFYPSDIAVEWESNGQPENNYKTTVPVLDSDGSFRLASYLTVDKSRWQQGNVFSCSVMHEALHNHYTQKSLSLSPGK
